Measurements taken from patent US20260258137A1.

Columns and labels:
[1] = biological target: human PD-L1 on CHO-K1 cells (CHO-K1/hPD-L1, Nanjing Genscript, M00543) (human) (UniProt Q9NZQ7); test: flow cytometry on CHO-K1/hPD-L1 cells
[2] = biological target: cynomolgus PD-L1 on CHO-K1 cells (CHO-K1/cynoPD-L1, Nanjing Genscript, M00573) (cynomolgus) (UniProt G7PSE7); test: flow cytometry on CHO-K1/cynoPD-L1 cells
[3] = biological target: human PD-L1 on CHO-K1 cells (CHO-K1/hPD-L1, Nanjing Genscript, M00543) (human) (UniProt Q9NZQ7); test: flow cytometry competition: biotin-hPD-1 binding to CHO-K1/hPD-L1 cells

human PD-L1 on CHO-K1 cells (CHO-K1/hPD-L1, Nanjing Genscript, M00543) (human), sequence (Q9NZQ7 19-290, one chain of several): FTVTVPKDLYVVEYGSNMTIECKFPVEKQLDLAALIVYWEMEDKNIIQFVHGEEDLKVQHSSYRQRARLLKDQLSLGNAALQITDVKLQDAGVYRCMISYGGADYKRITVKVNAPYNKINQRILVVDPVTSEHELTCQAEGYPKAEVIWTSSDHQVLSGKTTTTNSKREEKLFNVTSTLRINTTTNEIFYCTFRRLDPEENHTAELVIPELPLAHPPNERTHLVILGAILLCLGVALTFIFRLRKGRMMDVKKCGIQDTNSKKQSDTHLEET
cynomolgus PD-L1 on CHO-K1 cells (CHO-K1/cynoPD-L1, Nanjing Genscript, M00573) (cynomolgus), sequence (G7PSE7 entry or part of it limits assumed, one chain of several): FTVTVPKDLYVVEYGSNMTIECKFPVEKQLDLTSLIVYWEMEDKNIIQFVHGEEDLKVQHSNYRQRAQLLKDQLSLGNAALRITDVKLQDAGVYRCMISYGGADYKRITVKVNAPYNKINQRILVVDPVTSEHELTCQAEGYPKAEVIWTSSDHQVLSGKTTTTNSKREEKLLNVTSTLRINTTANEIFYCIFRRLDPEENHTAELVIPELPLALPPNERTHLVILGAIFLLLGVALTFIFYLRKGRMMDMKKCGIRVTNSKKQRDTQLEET

## isotype antibody hIgG1 iso
[1]
  MFI maximum value: 305 MFI
[2]
  MFI maximum value: 935 MFI
[3]
  Maximum inhibition rate (%): 0.68%
